The record followed here is patent US20250262210A1 (TRUSTEES OF COLUMBIA UNIVERSITY IN THE CITY OF NEW YORK, published 2025).

For one test, the target named is T1, MOCOS (human, UniProt Q96EN8 1-888).
T1 sequence (looked up): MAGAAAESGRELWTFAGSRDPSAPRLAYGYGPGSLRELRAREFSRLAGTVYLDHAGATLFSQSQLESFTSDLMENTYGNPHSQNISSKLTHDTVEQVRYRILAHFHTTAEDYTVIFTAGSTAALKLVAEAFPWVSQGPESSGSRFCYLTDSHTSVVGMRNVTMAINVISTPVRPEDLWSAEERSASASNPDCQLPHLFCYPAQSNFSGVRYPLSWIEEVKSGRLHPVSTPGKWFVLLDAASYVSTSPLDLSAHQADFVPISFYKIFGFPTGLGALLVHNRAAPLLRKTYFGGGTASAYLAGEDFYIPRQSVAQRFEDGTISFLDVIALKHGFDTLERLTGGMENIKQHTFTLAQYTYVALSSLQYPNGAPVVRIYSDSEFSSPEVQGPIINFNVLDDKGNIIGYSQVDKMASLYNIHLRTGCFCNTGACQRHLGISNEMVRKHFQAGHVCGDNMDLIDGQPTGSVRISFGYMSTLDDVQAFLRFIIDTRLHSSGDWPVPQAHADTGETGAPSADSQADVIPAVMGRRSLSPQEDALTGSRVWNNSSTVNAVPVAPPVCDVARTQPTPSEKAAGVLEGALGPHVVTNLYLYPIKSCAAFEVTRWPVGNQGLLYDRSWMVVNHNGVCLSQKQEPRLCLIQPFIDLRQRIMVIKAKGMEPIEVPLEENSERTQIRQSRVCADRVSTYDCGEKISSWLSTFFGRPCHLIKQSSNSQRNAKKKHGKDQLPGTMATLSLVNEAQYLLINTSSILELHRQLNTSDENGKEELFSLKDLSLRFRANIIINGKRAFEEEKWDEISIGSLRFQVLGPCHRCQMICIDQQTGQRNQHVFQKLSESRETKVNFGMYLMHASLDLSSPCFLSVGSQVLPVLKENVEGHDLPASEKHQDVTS
Put plainly: IP/MS, LZTR1 wild type-FLAG, U87. In short, it runs like this: (§1)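 Gel slices were reduced with 5 mM DTT, alkylated with 11 mM IAA and digested overnight at 37° C. with trypsin. Peptides were analysed on an Orbitrap Fusion Tribrid by LC-MS/MS.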

A further test has as its target T2, ELP1 (human, UniProt O95163 1-1332).
T2 sequence (looked up): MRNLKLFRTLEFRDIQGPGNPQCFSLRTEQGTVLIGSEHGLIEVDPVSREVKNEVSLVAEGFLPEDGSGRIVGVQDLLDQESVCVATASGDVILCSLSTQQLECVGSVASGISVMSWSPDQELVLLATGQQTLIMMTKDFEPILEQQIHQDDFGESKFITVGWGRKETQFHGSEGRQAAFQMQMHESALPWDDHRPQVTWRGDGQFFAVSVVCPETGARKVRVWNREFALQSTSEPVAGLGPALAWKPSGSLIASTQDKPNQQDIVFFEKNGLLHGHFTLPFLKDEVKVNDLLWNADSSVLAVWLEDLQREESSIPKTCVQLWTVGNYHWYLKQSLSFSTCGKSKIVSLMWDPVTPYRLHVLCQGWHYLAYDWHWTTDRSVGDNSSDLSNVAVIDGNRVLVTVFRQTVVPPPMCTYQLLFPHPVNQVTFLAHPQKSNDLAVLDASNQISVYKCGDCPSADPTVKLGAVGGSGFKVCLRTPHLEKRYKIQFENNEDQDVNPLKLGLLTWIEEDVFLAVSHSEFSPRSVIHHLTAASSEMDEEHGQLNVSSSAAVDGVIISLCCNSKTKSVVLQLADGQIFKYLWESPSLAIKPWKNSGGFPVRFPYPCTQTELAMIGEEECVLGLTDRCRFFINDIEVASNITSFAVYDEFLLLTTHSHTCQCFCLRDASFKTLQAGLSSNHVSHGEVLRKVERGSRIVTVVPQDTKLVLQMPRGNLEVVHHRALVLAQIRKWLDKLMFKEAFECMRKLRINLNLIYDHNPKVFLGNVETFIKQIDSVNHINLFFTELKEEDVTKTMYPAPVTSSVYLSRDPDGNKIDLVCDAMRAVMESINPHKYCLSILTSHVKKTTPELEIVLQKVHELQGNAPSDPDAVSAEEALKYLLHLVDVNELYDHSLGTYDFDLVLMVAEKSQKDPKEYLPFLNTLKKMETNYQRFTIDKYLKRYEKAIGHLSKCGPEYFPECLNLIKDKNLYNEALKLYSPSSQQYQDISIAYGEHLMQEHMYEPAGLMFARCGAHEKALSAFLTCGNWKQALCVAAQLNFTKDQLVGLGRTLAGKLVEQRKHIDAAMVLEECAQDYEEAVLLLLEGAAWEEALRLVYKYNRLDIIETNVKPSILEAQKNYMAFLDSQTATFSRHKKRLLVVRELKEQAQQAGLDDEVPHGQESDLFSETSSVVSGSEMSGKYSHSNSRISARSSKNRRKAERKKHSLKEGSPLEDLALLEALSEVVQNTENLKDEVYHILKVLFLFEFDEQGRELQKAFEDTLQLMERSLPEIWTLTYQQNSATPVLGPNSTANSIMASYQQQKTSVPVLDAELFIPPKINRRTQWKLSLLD
Put plainly: IP/MS, LZTR1 wild type-FLAG, U87. Put shortly: as §1

B1: LZTR1-FLAG (other, human, UniProt Q8N653 1-840, looked up)
chain: MAGPGSTGGQIGAAALAGGARSKVAPSVDFDHSCSDSVEYLTLNFGPFETVHRWRRLPPCDEFVGARRSKHTVVAYKDAIYVFGGDNGKTMLNDLLRFDVKDCSWCRAFTTGTPPAPRYHHSAVVYGSSMFVFGGYTGDIYSNSNLKNKNDLFEYKFATGQWTEWKIEGRLPVARSAHGATVYSDKLWIFAGYDGNARLNDMWTIGLQDRELTCWEEVAQSGEIPPSCCNFPVAVCRDKMFVFSGQSGAKITNNLFQFEFKDKTWTRIPTEHLLRGSPPPPQRRYGHTMVAFDRHLYVFGGAADNTLPNELHCYDVDFQTWEVVQPSSDSEVGGAEVPERACASEEVPTLTYEERVGFKKSRDVFGLDFGTTSAKQPTQPASELPSGRLFHAAAVISDAMYIFGGTVDNNIRSGEMYRFQFSCYPKCTLHEDYGRLWESRQFCDVEFVLGEKEECVQGHVAIVTARSRWLRRKITQARERLAQKLEQEAAPVPREAPGVAAGGARPPLLHVAIREAEARPFEVLMQFLYTDKIKYPRKGHVEDVLLIMDVYKLALSFQLCRLEQLCRQYIEASVDLQNVLVVCESAARLQLSQLKEHCLNFVVKESHFNQVIMMKEFERLSSPLIVEIVRRKQQPPPRTPLDQPVDIGTSLIQDMKAYLEGAGAEFCDITLLLDGHPRPAHKAILAARSSYFEAMFRSFMPEDGQVNISIGEMVPSRQAFESMLRYIYYGEVNMPPEDSLYLFAAPYYYGFYNNRLQAYCKQNLEMNVTVQNVLQILEAADKTQALDMKRHCLHIIVHQFTKVSKLPTLRSLSQQLLLDIIDSLASHISDKQCAELGADI
notes: Expressed in HEK 293T, HeLa or U87 cells; used as cell lysate; also called LZTR1 wild type-FLAG; LZTR1 WT; not shown: FLAG tag at the C-terminus
For B1, the binding result with MOCOS and with ELP1 was “binds” throughout.
